Assay results published in patent US20260132218A1 (A AND G PHARMACEUTICAL, published 2026).

Assays:
HER2 on SKBR3 cells = HER2 on SKBR3 cells (human, UniProt P04626 23-1255); assay: cell-based or functional assay
[1] = target: T1, human recombinant His-tagged HER2 extracellular domain (human, UniProt P04626 23-652); assay: competition EIA on coated HER2, competitor trastuzumab-biotin; given as ED50
T1 construct: extracellular domain; also called HER2-ECD; HER-ECD
Protocol: (§1) Method: 96 well high binding EIA plates were coated with 10 ng of HER2 protein overnight at 4 C. […] After washing, colorimetric substrate 3,3′,5,5′-tetramethylbenzidine (TMB) was added and absorbance at 620 nm was determined after 10 minutes.

[2] = target: T1, human recombinant His-tagged HER2 …; assay: blocking ELISA (competition EIA): HER2 protein coated on the plate, pre-incubated with the antibody, then competitor anti-HER2 TRAST-biotin, streptavidin-HRP; signal as % of h.IgG
Protocol: as §1

B1: 2A2 (antibody, IgG2a, V domains shown)
VH: EVQLVESGGGLVQPGRSLRLSCAASGFTFDDYAMHWVRQAPGKGLEWVSGISWNGGTLGYADSVKGRFTISRDNAKNSLYLQMNSLRAEDTALYYCAKDTGSYSHWYFDLWGRGTLVTVSS
VL: EIVMTQSPATLSVSPGERATLSCRASQSVRSNLAWYQQKPGQAPRLLIYGASTRATGIPARFSGSGSGTEFTLTISSLHSEDFAVYYCQQYNNWPTFGQGTKVEIK
notes: also called AGRD017-2A2; fully human 2A2 antibody
HER2 on SKBR3 cells
  Migration assay, at 50 ug/ml (inhibition of migration of SKBR3 cells): 38%
[1]
  IC50: 0.09 µg/mL

B2: 8C1 (antibody, IgG2a, V domains shown)
VH: EVQLVESGGGLVQPGRSLRLSCTASGFTFDDYAMHWVRQAPGKGLEWVSGISWNGGTLGYADSVKGRFTISRDNAKNSLYLQMNSLRAEDTALYYCAKDTGSYSHWYFDLWGRGTLVTVSS
VL: EIVMTQSPATLSVSPGERATLSCRASQSVRSNLAWYQQKPGQAPRLLIYGASTRATGIPARFSGSGSGTEFTLTISSLHSEDFAVYYCQQYNNWPTFGQGTKVEIK
notes: also called AGRD017-8C1; fully human 8C1 antibody
HER2 on SKBR3 cells
  Migration assay, at 50 ug/ml (inhibition of migration of SKBR3 cells): 32%
[1]
  IC50: 0.1 µg/mL

B3: 11D7 (antibody, V domains shown)
VH: EVQLVESGGGLVQPGRSLRLSCAASGFTFDDYAMHWVRQAPGKGLEWVSGIAWNGGILGYADSVKGRFTISRDNAKNSLYLQMNSLRAEDTALYYCAKDTGSYSHWYFDLWGRGTLVTVSS
VL: EIVMTQSPATLSVSPGERATLSCRASQSVRSNLAWYQQKPGQAPRLLIYGASTRATGIPARFSGSGSGTEFTLTISSLQSEDFAVYCCQQYNNWPTFGQGTKVEIK
notes: Hybridoma antibody from TC-mAb mice; also called AGRD017-11D7; fully human 11D7 antibody
HER2 on SKBR3 cells
  Migration assay, at 50 ug/ml (inhibition of migration of SKBR3 cells): 32%
[1]
  IC50: 0.06 µg/mL

B4: 2D7 (antibody, IgG1, V domains shown)
VH: EVQLVESGGGLVQPGRSLRLSCAASGFTFDDYAMHWVRQAPGKGLEWVSGISWNSGTMGYAGSVKGRFTISRDNAKNSLYLQMNSLRAEDTALYYCAKDTGSYSHWYFDLWGRGTLVTVSS
VL: not shown
notes: also called AGRD017-2D7; fully human 2D7 antibody
HER2 on SKBR3 cells
  Killing assay at 0.3 ug/ml Ab (2 nM), DM1 (6 nM), 72 hr: 50%
  Migration assay, at 50 ug/ml (inhibition of migration of SKBR3 cells): 59%
[2]
  IC50 (read off the curve): ~0.1 µg/mL

B5: 12E3 (antibody, IgG1, V domains shown)
VH: EVQLVGSGGGLVQPGRSLRLSCAASGFTFDDYAMHWVRQAPGKGLEWVSGISWNGGTLGYAGSVKGRFTISRDNAKNSLYLQMNSLRAEDTALYYCAKDTGSYSHWYFDLWGRGTLVTVSS
VL: EIVMTQSPATLSVSPGERATLSCRASQSVRSNLAWYQQKPGQAPRLLIYGASTRATGIPARCSGSGSGTEFTLTISSLQSEDFAVYYCQQYNNWPTFGQGTKVEIK
notes: also called AGRD017-12E3; fully human 12E3 antibody
HER2 on SKBR3 cells
  Internalization: Fluorescent Units: 9000 Fluorescent Units
  Migration assay, at 50 ug/ml (inhibition of migration of SKBR3 cells): 45%
[1]
  IC50: 0.04 µg/mL

B6: 3G7 (antibody, IgG1, V domains shown)
VH: EVQLVESGGGLVQPGRSLRLSCAASGFTFDDYAMHWVRQAPGKGLEWVSGVSWNGGTMGYAGSVKGRFTISRDNAKNSLYLQMNSLRAEDTALYYCAKDTGSYSHWYFDLWGRGTLVTVSS
VL: EIVMTQSPATLSVSPGERATLSCRASQSVRSNLAWYQQKPGQAPRLLIYGASTRATGIPGRFSGSGSGTEFILTISSLQSEDFAVYYCQQYNNWPTFGQGTKVEIK
notes: also called AGRD017-3G7; fully human 3G7 antibody
HER2 on SKBR3 cells
  Migration assay, at 50 ug/ml (inhibition of migration of SKBR3 cells): 24%
[1]
  IC50: 0.06 µg/mL
